From the RNAGym collection of RNA variant scans (doi:10.7554/elife.80360) come the findings set out here.

The chains are these.
B1: Twister Ribozyme (parent)
chain: AACACUGCCAAUGCCGGUCCCAAGCCCGGAUAAAAGUGGAGGGGGCGG

In the data set the parent is B1. The experiment in a line: self-cleavage, relative activity (ratio to wild type); higher = more cleavage; co-transcriptional.
On to G13A G29A, for which the self-cleavage stood at 0.653.
G13A G29C: the self-cleavage stood at 0.692.
Consider G13A G29U, for which the self-cleavage is 0.598.
With G13C A23U, the self-cleavage was found to be 0.0457.
Under C14G G39U stands 0.0771.
To C14G G39A belongs 0.0534; to C14G G39C, 0.0468.
For the variant C14G A22U, the self-cleavage was 0.128.
To C14G A22C belongs 0.372.
Consider G13C G41C, for which the self-cleavage came to 0.104.
G13C G41A: the self-cleavage was 0.0914.
For G13C G41U, the self-cleavage was determined as 0.0855.
To G13A A40G belongs 0.185.
To G13U G28C belongs 0.405; to G13U G24U, 0.0911; to G13U G24A, 0.0906.
Regarding C14A A40C, the self-cleavage turned out to be 0.189.
Take C14A A40G: the self-cleavage was determined as 0.136.
Under G13U A30U stands 0.749; under U12G A40C, 0.261; under U12G A40U, 0.279.
Under G13A C27U stands 0.482.
G13A C27A: the self-cleavage was determined as 0.0875.
Under G13U U37C stands 0.133; under U12C G47A, 0.785.
Under U12G C25U stands 0.675; under U12G C25A, 0.256; under U12G A22C, 1.13.
To U12G A22U belongs 0.706; to U12G G38A, 0.771; to C14A C46G, 0.87.
On to U12G G43U, for which the self-cleavage came out at 0.454.
Under U12G G43C stands 0.274; under G13A A30G, 0.742.
To G13U C14U belongs 0.635; to C14G C20A, 0.104; to C14A A30G, 0.803.
Consider C14A A30C, for which the self-cleavage worked out at 0.819.
With C14A G38U, the self-cleavage turned out to be 0.676.
With U12G G39U, the self-cleavage is 0.247.
Under U12G G39A stands 0.477; under U12G G39C, 0.137.
On to G13C A40U, for which the self-cleavage turned out to be 0.109.
Under G13C A40G stands 0.0963; under U12G U18A, 0.46.
Under U12G U18C stands 0.437; under U12G C26G, 0.451; under U12G C26U, 0.407.
Regarding U12C U18G, the self-cleavage was determined as 0.0285.
To G13A C14A belongs 0.685.
To U12G C19U belongs 0.998.
For G13U A22G, the self-cleavage came out at 0.098.
As to G13U A22U, the self-cleavage came out at 0.174.
Under C14A A33C stands 0.884.
As for C14A A33G, the self-cleavage was determined as 0.84.
For G13A G36U, the self-cleavage is 0.139.
As to G13A G36A, the self-cleavage worked out at 0.162.
To G13A A34U belongs 0.64; to G13U G39A, 0.113; to C14G, 0.171.
In the case of C14A, the self-cleavage turned out to be 0.923.
For G13U U31G, the self-cleavage was found to be 0.667.
To G13U U31A belongs 0.43.
Under C14G A34G stands 0.182.
To U12G U37G belongs 0.653.
In the case of U12G U37C, the self-cleavage amounted to 0.593.
Regarding G13C G47U, the self-cleavage was determined as 0.145.
For the variant G13C G47A, the self-cleavage came out at 0.154.
Take G13C G47C: the self-cleavage is 0.179.
To C14A G41C belongs 0.294; to U12G A33C, 0.685; to C14G G17U, 0.101.
Consider G13A A32C, for which the self-cleavage came out at 0.689.
Regarding C14G A40G, the self-cleavage stood at 0.0712.
As for C14G A40U, the self-cleavage stood at 0.0589.
For C14G A40C, the self-cleavage was determined as 0.067.
Under C14G C46A stands 0.078; under U12G G41U, 0.783.
Under U12G G41C stands 0.315; under U12G G41A, 0.658; under G13A G38C, 0.78.
Under G13A G38A stands 0.581; under G13U C19G, 0.0472.
For G13U C21A, the self-cleavage came out at 0.0794.
Under G13U C21G stands 0.0567; under C14A C20A, 0.165; under C14A C20G, 0.126.
Under G13A C46U stands 0.931; under C14A C27G, 0.0739; under C14A C27A, 0.31.
Under C14A A34U stands 0.866; under C14A G48C, 1.04; under G13A C21U, 0.0803.
Turning to G13A C21G, the self-cleavage amounted to 0.105.
Under G13C A30G stands 0.502; under G13C G24U, 0.0687.
To G13A G16U belongs 0.168.
Under U12G C15U stands 0.649.
As to G13C G39U, the self-cleavage was determined as 0.108.
Under G13C G39C stands 0.117; under G13C U31G, 0.585.
Take G13C U31A: the self-cleavage came out at 0.767.
For G13C C21G, the self-cleavage was found to be 0.0833.
Under G13C C21U stands 0.0571.
As to G13C C21A, the self-cleavage is 0.0599.
Consider G13U G48A, for which the self-cleavage came to 0.309.
As for G13U G48U, the self-cleavage stood at 0.357.
Under G13C U18A stands 0.067; under G13C U18G, 0.0609.
To G13A G48U belongs 0.705.
With G13A G48C, the self-cleavage is 0.91.
Under C14A G16C stands 0.0948; under C14G C27A, 0.0743.
To C14G C27G belongs 0.0942; to C14G C27U, 0.0942; to U12G G42U, 0.531.
To U12G G42A belongs 0.494; to G13U C25U, 0.129.
For the variant G13U C25A, the self-cleavage was determined as 0.0642.
To U12G C20G belongs 0.249; to U12G C20U, 0.725; to C14A A35G, 0.718.
To G13U C27A belongs 0.0958; to G13U C27U, 0.212.
Regarding G13U C27G, the self-cleavage came out at 0.0965.
Take U12G A32C: the self-cleavage worked out at 0.9.
Take U12G A32U: the self-cleavage stood at 0.958.
On to U12G A32G, for which the self-cleavage amounted to 0.914.
To G13A C26G belongs 0.0899.
Under G13A C26A stands 0.095; under G13U A34G, 0.211.
Turning to G13U, the self-cleavage stood at 0.801.
Take G13C: the self-cleavage came out at 0.584.
Under G13A stands 1.05.
As to U12G A34G, the self-cleavage is 0.608.
On to U12G A34U, for which the self-cleavage amounted to 0.701.
With C14G C26G, the self-cleavage was 0.0666.
On to C14G C26A, for which the self-cleavage was 0.0764.
Under G13C G43A stands 0.0854; under G13C G43C, 0.105.
To C14A G43A belongs 0.309; to C14A G43C, 0.182; to G13C G38C, 0.32.
To C14G G24U belongs 0.0521.
With C14G G24A, the self-cleavage is 0.0254.
To G13C C14A belongs 0.593; to G13C C27G, 0.104.
On to C14G C21G, for which the self-cleavage is 0.0402.
With C14G C21A, the self-cleavage was 0.0482.
As to G13C G44C, the self-cleavage turned out to be 0.185.
Take G13C G44U: the self-cleavage was determined as 0.254.
To U12G A35U belongs 0.848.
As to U12G A35C, the self-cleavage is 0.89.
Under G13U C26A stands 0.129; under C14G G28U, 0.157; under G13U C46U, 0.586.
Regarding G13U C46A, the self-cleavage was determined as 0.361.
In the case of G13U C46G, the self-cleavage came to 0.328.
To C14G A30G belongs 0.122.
To C14G A30C belongs 0.16; to G13U G45C, 0.194; to G13U G45U, 0.212.
Under G13C G36C stands 0.122; under G13C G36A, 0.126.
For C14A A23C, the self-cleavage was found to be 0.348.
Under G13A G45U stands 0.539.
Take G13A G45A: the self-cleavage was 0.724.
